Series [1] can be described thus: Encapsulation yield by spectrophotometry after dissolution of the particles. In kind it is physicochemical. Particulars: Example 1 particles; percentage of compound initially used that is detected in the particles; upper limit of detection 98%. The protocol:
A second evaluation method measures the encapsulation yield. The encapsulation yield is measured directly on the particles, and represents the percentage of the compound of interest initially used in the encapsulation method that is detected in the particles. The measurement is performed by spectrophotometry by means of a Thermoscientific Genesys 180 device after dissolution of the particles. Based on the detection limits of the device, the upper limit of encapsulation yield is noticed to be 98%, meaning that approximately 2% is not detected. This also means that an encapsulation yield of 98% indicates a very good encapsulation of the compound of interest.
For the measurement of the encapsulation yield, the protein pork haemoglobin was used as compound of interest for encapsulation. The encapsulation yield for pork haemoglobin was up to 98%, indicating a very high encapsulation yield.

Series [2] is described as follows: Encapsulation efficiency by spectrophotometry of the second aqueous solution after separation of the particles. The series is classed as physicochemical. Particulars: Example 1 particles (Eudragit S100 matrix, oleic acid shell); typical detection limit 2 w %. The protocol:
The encapsulation efficiency has been measured through spectrophotometry measurement by means of a Thermoscientific Genesys 180 device. The encapsulation efficiency is measured by measuring the percentage of compound of interest in the second aqueous solution after separation of the obtained particles. The percentage is a weight percentage, i.e. the mass of compound in relation to the total mass of the second aqueous solution. Given the high mass of second aqueous solution in relation to the mass of the compound of interest, only significant amounts of compound of interest are detected. A typical detection limit is 2 w %. If no compound of interest is detected in the second aqueous solution after separation of the obtained particles, it means that no to very low quantities of compound of interest are present in the second aqueous solution, and that the encapsulation can be considered to have been efficient. Detection of the compound of interest indicates less efficient encapsulation. The larger the amount of compound of interest detected, the less efficient was the encapsulation.
For the measurement of the encapsulation efficiency, the protein pork haemoglobin was used as compound of interest for encapsulation.

As to pork haemoglobin, the encapsulation yield entry in series [1] is given as “up to 98%”. Besides, the “encapsulation efficiency: compound of interest detected in the second aqueous solution after separation of the obtained particles” value in series [2] is recorded as “No traces”.

For the origin of these results see patent publication US20230355534A1, “METHOD TO ENCAPSULATE AN AQUEOUS SOLUTION COMPRISING A COMPOUND OF INTEREST IN A MATRIX” (SECOYA TECHNOLOGIES, priority 2020, published 2023).
